System: zein
Assay: Relative activity assay of protease variants (zein micro titer plate)
Assay type: biochemical
Conditions: Table 3
Description: Each well contains 200 microL of 0.05-0.1% of zein (Sigma), 0.25 mM ZnSO4 and 1% of agar in 20 mM sodium acetate buffer, pH 4.5.
Yeast clones on SC-glucose were inoculated to a well of a 96-well micro titre plate containing YPD+Zn medium and cultivated at 28° C. for 3 days. The culture supernatants were applied to a 96-well zein micro titer plate and incubated at at least 2 temperatures (ex. 60° C. and 65° C., 70° C. and 75° C., 70° C. and 80° C.) for more than 4 hours or overnight. The turbidity of zein in the plate was measured as A630 and the relative activity (higher/lower temperatures) was determined as an indicator of thermoactivity improvement. The clones with higher relative activity than the parental variant were selected and the sequence was determined.

Row | Molecule | Relative activity 75° C./70° C. | Relative activity 75° C./65° C.
1 | JTP054: protease variant of SEQ ID NO: 3: ΔS5/D79L/S87P (protein, listed as Thermoascus aurantiacus) MRLVASLTALVALSVPVFPAAVNVKRASSYLEITLSQVSNTLIKAVVQNTGSDELSFVHLNFFKDPAPVKKVSVYRDGSEVQFEGILSRYKSTGLSRDAFTYLAPGESVEDVFDIASTYDLTSGGPVTIRTEGVVPYATANSTDIAGYISYSSNVLTIDVDGAAAATVSKAITPLDRRTRISCSGSRQSALTTALRNAASLANAAADAAQSGSASKFSEYFKTTSSSTRQTVAARLRAVAREASSSSSGATTYYCLDPYGYCSPNVLAYTLPSYNIIANCDIFYTYLPALTSTCHAQDQATTALHEFTHAPGVYSPGTDDLAYGYQAAMGLSSSQAVMNADTYALYANAIYLGC | 92% | –
2 | JTP055: protease variant of SEQ ID NO: 3: ΔG8/D79L/S87P (protein, listed as Thermoascus aurantiacus) MRLVASLTALVALSVPVFPAAVNVKRASSYLEITLSQVSNTLIKAVVQNTGSDELSFVHLNFFKDPAPVKKVSVYRDGSEVQFEGILSRYKSTGLSRDAFTYLAPGESVEDVFDIASTYDLTSGGPVTIRTEGVVPYATANSTDIAGYISYSSNVLTIDVDGAAAATVSKAITPLDRRTRISSCSSRQSALTTALRNAASLANAAADAAQSGSASKFSEYFKTTSSSTRQTVAARLRAVAREASSSSSGATTYYCLDPYGYCSPNVLAYTLPSYNIIANCDIFYTYLPALTSTCHAQDQATTALHEFTHAPGVYSPGTDDLAYGYQAAMGLSSSQAVMNADTYALYANAIYLGC | 95% | –
3 | JTP040: protease variant of SEQ ID NO: 3: T54R/D79L/S87P (protein, listed as Thermoascus aurantiacus) MRLVASLTALVALSVPVFPAAVNVKRASSYLEITLSQVSNTLIKAVVQNTGSDELSFVHLNFFKDPAPVKKVSVYRDGSEVQFEGILSRYKSTGLSRDAFTYLAPGESVEDVFDIASTYDLTSGGPVTIRTEGVVPYATANSTDIAGYISYSSNVLTIDVDGAAAATVSKAITPLDRRTRISSCSGSRQSALTTALRNAASLANAAADAAQSGSASKFSEYFKTTSSSTRQRVAARLRAVAREASSSSSGATTYYCLDPYGYCSPNVLAYTLPSYNIIANCDIFYTYLPALTSTCHAQDQATTALHEFTHAPGVYSPGTDDLAYGYQAAMGLSSSQAVMNADTYALYANAIYLGC | – | 71%
4 | JTP045: protease variant of SEQ ID NO: 3: S41R/D79L/S87P (protein, listed as Thermoascus aurantiacus) MRLVASLTALVALSVPVFPAAVNVKRASSYLEITLSQVSNTLIKAVVQNTGSDELSFVHLNFFKDPAPVKKVSVYRDGSEVQFEGILSRYKSTGLSRDAFTYLAPGESVEDVFDIASTYDLTSGGPVTIRTEGVVPYATANSTDIAGYISYSSNVLTIDVDGAAAATVSKAITPLDRRTRISSCSGSRQSALTTALRNAASLANAAADAAQSGSASKFREYFKTTSSSTRQTVAARLRAVAREASSSSSGATTYYCLDPYGYCSPNVLAYTLPSYNIIANCDIFYTYLPALTSTCHAQDQATTALHEFTHAPGVYSPGTDDLAYGYQAAMGLSSSQAVMNADTYALYANAIYLGC | – | 82%
5 | JTP047: protease variant of SEQ ID NO: 3: D79L/S87P/S157K (protein, listed as Thermoascus aurantiacus) MRLVASLTALVALSVPVFPAAVNVKRASSYLEITLSQVSNTLIKAVVQNTGSDELSFVHLNFFKDPAPVKKVSVYRDGSEVQFEGILSRYKSTGLSRDAFTYLAPGESVEDVFDIASTYDLTSGGPVTIRTEGVVPYATANSTDIAGYISYSSNVLTIDVDGAAAATVSKAITPLDRRTRISSCSGSRQSALTTALRNAASLANAAADAAQSGSASKFSEYFKTTSSSTRQTVAARLRAVAREASSSSSGATTYYCLDPYGYCSPNVLAYTLPSYNIIANCDIFYTYLPALTSTCHAQDQATTALHEFTHAPGVYSPGTDDLAYGYQAAMGLSSKQAVMNADTYALYANAIYLGC | – | 85%
6 | JTP048: protease variant of SEQ ID NO: 3: D79L/S87P/D104R (protein, listed as Thermoascus aurantiacus) MRLVASLTALVALSVPVFPAAVNVKRASSYLEITLSQVSNTLIKAVVQNTGSDELSFVHLNFFKDPAPVKKVSVYRDGSEVQFEGILSRYKSTGLSRDAFTYLAPGESVEDVFDIASTYDLTSGGPVTIRTEGVVPYATANSTDIAGYISYSSNVLTIDVDGAAAATVSKAITPLDRRTRISSCSGSRQSALTTALRNAASLANAAADAAQSGSASKFSEYFKTTSSSTRQTVAARLRAVAREASSSSSGATTYYCLDPYGYCSPNVLAYTLPSYNIIANCRIFYTYLPALTSTCHAQDQATTALHEFTHAPGVYSPGTDDLAYGYQAAMGLSSSQAVMNADTYALYANAIYLGC | – | 88%
7 | JTP042: protease variant of SEQ ID NO: 3: Q53K/D79L/S87P/I173V (protein, listed as Thermoascus aurantiacus) MRLVASLTALVALSVPVFPAAVNVKRASSYLEITLSQVSNTLIKAVVQNTGSDELSFVHLNFFKDPAPVKKVSVYRDGSEVQFEGILSRYKSTGLSRDAFTYLAPGESVEDVFDIASTYDLTSGGPVTIRTEGVVPYATANSTDIAGYISYSSNVLTIDVDGAAAATVSKAITPLDRRTRISSCSGSRQSALTTALRNAASLANAAADAAQSGSASKFSEYFKTTSSSTRKTVAARLRAVAREASSSSSGATTYYCLDPYGYCSPNVLAYTLPSYNIIANCDIFYTYLPALTSTCHAQDQATTALHEFTHAPGVYSPGTDDLAYGYQAAMGLSSSQAVMNADTYALYANAVYLGC | – | 108%
8 | JTP046: protease variant of SEQ ID NO: 3: D79L/S87P/Q158W (protein, listed as Thermoascus aurantiacus) MRLVASLTALVALSVPVFPAAVNVKRASSYLEITLSQVSNTLIKAVVQNTGSDELSFVHLNFFKDPAPVKKVSVYRDGSEVQFEGILSRYKSTGLSRDAFTYLAPGESVEDVFDIASTYDLTSGGPVTIRTEGVVPYATANSTDIAGYISYSSNVLTIDVDGAAAATVSKAITPLDRRTRISSCSGSRQSALTTALRNAASLANAAADAAQSGSASKFSEYFKTTSSSTRQTVAARLRAVAREASSSSSGATTYYCLDPYGYCSPNVLAYTLPSYNIIANCDIFYTYLPALTSTCHAQDQATTALHEFTHAPGVYSPGTDDLAYGYQAAMGLSSSWAVMNADTYALYANAIYLGC | – | 96%
9 | JTP053: protease variant of SEQ ID NO: 3: S41R/D79L/S87P/A112P/D142L/S157K (protein, listed as Thermoascus aurantiacus) MRLVASLTALVALSVPVFPAAVNVKRASSYLEITLSQVSNTLIKAVVQNTGSDELSFVHLNFFKDPAPVKKVSVYRDGSEVQFEGILSRYKSTGLSRDAFTYLAPGESVEDVFDIASTYDLTSGGPVTIRTEGVVPYATANSTDIAGYISYSSNVLTIDVDGAAAATVSKAITPLDRRTRISSCSGSRQSALTTALRNAASLANAAADAAQSGSASKFREYFKTTSSSTRQTVAARLRAVAREASSSSSGATTYYCLDPYGYCSPNVLAYTLPSYNIIANCDIFYTYLPPLTSTCHAQDQATTALHEFTHAPGVYSPGTLDLAYGYQAAMGLSSKQAVMNADTYALYANAIYLGC | 113% | –
10 | JTP051: protease variant of SEQ ID NO: 3: S41R/D79L/S87P/A112P/D142L (protein, listed as Thermoascus aurantiacus) MRLVASLTALVALSVPVFPAAVNVKRASSYLEITLSQVSNTLIKAVVQNTGSDELSFVHLNFFKDPAPVKKVSVYRDGSEVQFEGILSRYKSTGLSRDAFTYLAPGESVEDVFDIASTYDLTSGGPVTIRTEGVVPYATANSTDIAGYISYSSNVLTIDVDGAAAATVSKAITPLDRRTRISSCSGSRQSALTTALRNAASLANAAADAAQSGSASKFREYFKTTSSSTRQTVAARLRAVAREASSSSSGATTYYCLDPYGYCSPNVLAYTLPSYNIIANCDIFYTYLPPLTSTCHAQDQATTALHEFTHAPGVYSPGTLDLAYGYQAAMGLSSSQAVMNADTYALYANAIYLGC | 102% | –
11 | JTP052: protease variant of SEQ ID NO: 3: D79L/S87P/A112P/D142L/S157K (protein, listed as Thermoascus aurantiacus) MRLVASLTALVALSVPVFPAAVNVKRASSYLEITLSQVSNTLIKAVVQNTGSDELSFVHLNFFKDPAPVKKVSVYRDGSEVQFEGILSRYKSTGLSRDAFTYLAPGESVEDVFDIASTYDLTSGGPVTIRTEGVVPYATANSTDIAGYISYSSNVLTIDVDGAAAATVSKAITPLDRRTRISSCSGSRQSALTTALRNAASLANAAADAAQSGSASKFSEYFKTTSSSTRQTVAARLRAVAREASSSSSGATTYYCLDPYGYCSPNVLAYTLPSYNIIANCDIFYTYLPPLTSTCHAQDQATTALHEFTHAPGVYSPGTLDLAYGYQAAMGLSSKQAVMNADTYALYANAIYLGC | 111% | –
12 | JTP043: protease variant of SEQ ID NO: 3: Q53R/D79L/S87P (protein, listed as Thermoascus aurantiacus) MRLVASLTALVALSVPVFPAAVNVKRASSYLEITLSQVSNTLIKAVVQNTGSDELSFVHLNFFKDPAPVKKVSVYRDGSEVQFEGILSRYKSTGLSRDAFTYLAPGESVEDVFDIASTYDLTSGGPVTIRTEGVVPYATANSTDIAGYISYSSNVLTIDVDGAAAATVSKAITPLDRRTRISSCSGSRQSALTTALRNAASLANAAADAAQSGSASKFSEYFKTTSSSTRRTVAARLRAVAREASSSSSGATTYYCLDPYGYCSPNVLAYTLPSYNIIANCDIFYTYLPALTSTCHAQDQATTALHEFTHAPGVYSPGTDDLAYGYQAAMGLSSSQAVMNADTYALYANAIYLGC | – | 80%

Reference: patent US20170283834A1, “Processes for Producing A Fermentation Product Using A Fermenting Organism” (Novozymes A/S, priority 2014, published 2017)
